Reference: paper PMC6135645

Target: Light-Harvesting Complex II (LHCII), trimeric (spinach (endogenous in spinach leaves))
Assay: native gel or EMSA; non-denaturing Clear Native PAGE (NativePAGE Novex 4-16% Bis-Tris), Coomassie staining; LHCII in α-DDM after sucrose gradient and size-exclusion chromatography

stoichiometry N: 3
Substance: Light-Harvesting Complex II (LHCII), trimeric
